Data published in US20250388907A1, “MULTISPECIFIC POLYNUCLEOTIDE NANOSTRUCTURES FOR CANCER DETECTION AND THERAPY” (Atom Bioworks, Inc., priority 2021, published 2025).
Where “and” joins values, the source holds several entries; their conditions need not be identical. Identical values can stand only once. Like-named read-outs stand apart in the source and are kept apart here.

B1: ABWT050902 (ssDNA)
DNA: ATCCAGAGTGACGCAGCACCGCCCATGTCGAATAGGTGCCACGTAGGGACTTGGACACGGTGGCTTAGT
B2: ABWT050902: CD117-binding aptamer, SEQ ID NO: 1; FAM-labeled or daunorubicin-loaded in tests (nucleic acid)
chain: ATCCAGAGTGACGCAGCACCGCCCATGTCGAATAGGTGCCACGTAGGGACTTGGACACGGTGGCTTAGT
modifications: FAM label or daunorubicin loading in tests, chemistry not fully specified
B3: ZW25: CD123-binding aptamer, SEQ ID NO: 4 (nucleic acid)
chain: TGCGTGTGTAGTGTGTCTGGGCTACATCGATGAGCTGCCTAGGGTCCCTCTTAGGGATTTGGGCGGG
modifications: listed as DNA, chemistry not fully specified
B4: Oligo-Protein G conjugates: docking oligo conjugated via sulfo-SMCC linker to 6xHis-tagged recombinant Protein G (conjugate)
chain: TYKLILNGKTLKGETTTEAVDAATAEKVFKQYANDNGVDGEWTYDDATKTFTVTEKPEVIDASELTPAVTTYKLVINGKTLKGETTTEAVDAATAEKVFKQYANDNGVDGEWTYDDATKTFTVTEKPEVIDASELTPAVTTYKLVINGKTLKGETTTKAVDAETAEKAFKQYANDNGVDGVWTYDDATKTFTVTE
B5: 3x3v2-Conjugate: Oligo-Protein G conjugates immobilized on 3x3v2 nets (conjugate)
chain: TYKLILNGKTLKGETTTEAVDAATAEKVFKQYANDNGVDGEWTYDDATKTFTVTEKPEVIDASELTPAVTTYKLVINGKTLKGETTTEAVDAATAEKVFKQYANDNGVDGEWTYDDATKTFTVTEKPEVIDASELTPAVTTYKLVINGKTLKGETTTKAVDAETAEKAFKQYANDNGVDGVWTYDDATKTFTVTE
B6: #1: CD117-binding aptamer, SEQ ID NO: 3 (nucleic acid)
chain: GAGGCATACCAGCTTATTCAAGGGGCCGGGGCAAGGGGGGGGTACCGTGGTAGGACATAGTAAGTGCAATCTGCGAA
modifications: listed as DNA, chemistry not fully specified
B7: ABWT050904: CD117-binding aptamer, SEQ ID NO: 2 (nucleic acid)
chain: ATCCAGAGTGACGCAGCACGAGCCTTGTGTCGTTCGGAGTGCTGGTCCACGACTACTATTGGACACGGTGGCTTAGT
modifications: listed as DNA, chemistry not fully specified
B8: CY30: CD123-binding aptamer, SEQ ID NO: 5 (nucleic acid)
chain: TGCGTGTGTACTGTGTCTGGTCCCGTAGCTACTAGCGAACTCCCTGCCTCTTAGGGATTTGGGCGG
modifications: listed as DNA, chemistry not fully specified

Tests used:
MM1S cells = test: MTT cell killing assay; format: cell-based, Human; conditions: Example 3: 24 hours treatment, MTT after 48 hours; daunorubicin 40 μM; daunorubicin-loaded aptamers 4 μM and 2 μM
Experimental: (§1) Daunorubicin-loaded aptamers were then diluted across various concentrations: 4 μM, 2 μM, 0.2 μM, and 0.02 μM. Untreated cells were used as a negative killing control. 10% DMSO was used as a positive killing control. 40 μM daunorubicin was also used as a positive killing control but one that matched the current National Comprehensive Cancer Network (NCCN) guidelines for AML daunorubicin chemotherapy dosing. Cells were incubated with their respective treatments for 24 hours before they were washed with cell medium. After 48 hours, the viability of all cells were assessed using MTT assays. All conditions were performed in triplicate for standard error analysis. MM1S cells were used as negative control in the assays having aptamers at 4 μM and 2 μM, respectively.
Daunorubicin-loaded aptamers were prepared as described in Example 3. The killing activity of daunorubicin-loaded aptamers alone and daunorubicin-loaded aptamers on various networks of polynucleotides, i.e., 3x3v1 nets and TRD1 tiles on KASUMI-1 cells (an AML cell line) were assessed using the procedures as described in Example 3. […]

KASUMI-1 cells = test: MTT cell killing assay; format: cell-based, Human; conditions: for ΔFold over Free (3x3v1): IC50 on 3x3v1 net versus free aptamer; for ΔFold over Free (TRD1): IC50 on TRD1 versus free aptamer
Experimental: as §1
Daunorubicin-loaded aptamers were prepared as described in Example 3. The killing activity of daunorubicin-loaded aptamers alone and daunorubicin-loaded aptamers on various networks of polynucleotides, i.e., 3x3v1 nets and TRD1 tiles on KASUMI-1 cells (an AML cell line) were assessed using the procedures as described in Example 3. Additional negative killing controls were added to control for any inherent nonspecific killing effects by the networks of polynucleotides or aptamers: “3x3v1 net (Empty)” is 3x3v1 net without aptamers (therefore, no daunorubicin), “TRD1 (Empty)” is TRD1 without aptamers (therefore, no daunorubicin), “Scramble Aptamer 1”, “Scramble Aptamer 2”, and “Scramble Aptamer 3” were three oligos with lengths and A:T:C:G ratios similar to the tested aptamers but whose nucleotide sequences were randomized but also loaded with daunorubicin. 0.4 μM Daunorubicin were intercalated into aptamers across all conditions.
KASUMI-1 cells were cultured and incubated with all five aptamers (each loaded with daunorubicin) across six concentrations: 10 nM, 1 nM, […] and 100 fM. 10% DMSO, 40 μM daunorubicin, 4 μM daunorubicin, and 0.4 μM daunorubicin were used as positive killing controls. 3x3v1 net (Empty), TRD1 (Empty), Scramble Aptamer 1, Scramble Aptamer 2, and Scramble Aptamer 3 were negative killing controls. Incubation and washing procedures were as described in Experiment 3. After 48 hours, the samples were measured for viability via MTT assay. Data points were plotted and unpaired student's t—tests were performed to determine significance. For IC50 calculations, the concentrations were transformed to the logarithmic equivalent followed by normalization of the relative cell viability on a scale of 0-100. The normalized viability was subjected to nonlinear regression against the logarithmically converted inhibitor concentrations in the three parameters variable slope mode to determine the IC50. […]
ABWT050902 aptamers with D1 dock sites were loaded with daunorubicin as described previously. Aptamers were then immobilized on PTR45 and PTR86 (please refer to FIG. 17B and FIG. 17C). PTR45 was loaded with 20 ABWT050902 D1 aptamers, whereas PTR86 were loaded with 40. KASUMI-1 cells were grown, incubated with analytes, and measured via MTT cell killing assays as described previously.

CD117 (c-KIT) = CD117 (c-KIT) (UniProt P10721 P10721:26-524); test: SPR; aptamer alone, CD117 immobilized on CM5 chip; conditions: tags: immobilized on Biacore CM5 chip; label: 5' FAM (flow cytometry)
Chain of CD117 (c-KIT) (P10721 26-524, one chain of several): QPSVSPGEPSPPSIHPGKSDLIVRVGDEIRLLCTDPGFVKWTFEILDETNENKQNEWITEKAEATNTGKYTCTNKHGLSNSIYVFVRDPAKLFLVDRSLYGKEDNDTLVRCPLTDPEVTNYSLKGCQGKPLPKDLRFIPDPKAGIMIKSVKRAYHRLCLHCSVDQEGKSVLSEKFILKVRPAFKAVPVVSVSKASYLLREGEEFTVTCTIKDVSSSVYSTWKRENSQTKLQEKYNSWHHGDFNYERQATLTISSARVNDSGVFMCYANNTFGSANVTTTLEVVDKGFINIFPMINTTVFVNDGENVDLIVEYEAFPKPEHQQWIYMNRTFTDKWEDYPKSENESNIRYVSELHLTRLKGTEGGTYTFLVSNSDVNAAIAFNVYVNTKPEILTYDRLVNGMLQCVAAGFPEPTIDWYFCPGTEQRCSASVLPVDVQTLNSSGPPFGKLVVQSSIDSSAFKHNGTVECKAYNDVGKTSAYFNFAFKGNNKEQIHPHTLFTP
Experimental: Next, surface plasmon resonance (SPR) assays were performed to assess the ability of networks of polynucleotides to improve the binding affinity of an aptamer. Aptamer ABWT050902 (a CD 117 binder) was folded as previously described. Aptamers alone, and aptamers on a TRD1 (as illustrated in FIG. 2) were prepared at varying concentrations and flowed over a CM5 sensor chip on a Biacore SPR immobilized with CD117. The inter-binder distances of the 96 uniquely addressable docking loci for CD 117 binders was 5 nm. Concentrations were normalized to total aptamer amount.

CD117 = CD117 (Homo sapiens, UniProt P10721); test: SPR binding assay, Biacore CM5 chip; conditions: CD117 immobilized on CM5 chip, concentrations normalized to total aptamer amount
Chain of CD117 (P10721 26-976): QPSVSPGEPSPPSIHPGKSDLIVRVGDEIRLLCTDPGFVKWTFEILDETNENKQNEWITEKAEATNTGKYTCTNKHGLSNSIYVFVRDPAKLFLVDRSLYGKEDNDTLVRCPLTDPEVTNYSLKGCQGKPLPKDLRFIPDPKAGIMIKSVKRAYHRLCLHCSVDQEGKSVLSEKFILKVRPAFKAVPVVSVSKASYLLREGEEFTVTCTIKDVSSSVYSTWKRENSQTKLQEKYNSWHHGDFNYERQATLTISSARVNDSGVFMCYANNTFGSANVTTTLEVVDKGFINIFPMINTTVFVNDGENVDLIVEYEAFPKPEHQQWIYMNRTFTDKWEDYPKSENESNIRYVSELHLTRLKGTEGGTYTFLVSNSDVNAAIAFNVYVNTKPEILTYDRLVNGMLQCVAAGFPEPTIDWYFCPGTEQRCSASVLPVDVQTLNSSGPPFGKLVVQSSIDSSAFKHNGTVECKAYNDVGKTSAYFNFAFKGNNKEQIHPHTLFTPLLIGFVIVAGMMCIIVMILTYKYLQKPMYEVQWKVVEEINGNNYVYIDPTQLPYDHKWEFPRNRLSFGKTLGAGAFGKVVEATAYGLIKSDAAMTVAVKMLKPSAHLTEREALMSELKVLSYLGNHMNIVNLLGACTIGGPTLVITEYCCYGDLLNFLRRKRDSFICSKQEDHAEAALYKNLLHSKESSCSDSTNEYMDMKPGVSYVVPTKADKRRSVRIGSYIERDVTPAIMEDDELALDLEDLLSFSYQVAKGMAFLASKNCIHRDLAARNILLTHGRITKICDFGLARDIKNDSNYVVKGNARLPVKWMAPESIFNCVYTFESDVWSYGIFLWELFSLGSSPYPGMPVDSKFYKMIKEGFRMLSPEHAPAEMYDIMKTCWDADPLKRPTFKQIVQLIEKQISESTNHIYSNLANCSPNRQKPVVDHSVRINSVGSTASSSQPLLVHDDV

[1] = Kinetic fluorescent assay of daunorubicin release over time; conditions: free daunorubicin in supernatant buffer
From the text: Despite both “ABWT050902 Alone, With Daunorubicin” and “ABWT050902 on TRD1” conditions beginning the assay at the same time, the former began the assay with higher fluorescence of 400.0+ RFUs compared to the latter. This is because more free daunorubicin was in the supernatant buffer of “ABWT050902 Alone, with Daunorubicin” compared to “ABWT050902 on TRD1”.

mouse IgG = test: SPR binding assay of Protein G activity, Biacore CM5 chip; conditions: mouse IgG immobilized on CM5 chip, equivalent conjugate amount
Experimental: We used a sulfo-SMCC linker to conjugate an oligo (complementary to 3x3v1 docking sites) bearing a 5′ amine to the N terminal cysteine sulfhydryl R group on 6xHis-tagged recombinant Protein G (the oligo also bore a 3′ biotin for later purification). This was performed at room temperature in 1x phosphate buffered saline (PBS), pH 7.4. Oligo functionalization with sulfo-SMCC was performed first (as is typical), followed by two Zeba column (7 kDa molecular weight cutoff) cleanups to remove the excess sulfo-SMCC. Functionalized oligos were then placed in molar excess to Cys-Protein G. Purification proceeded via usage of monomeric avidin resin (to remove any unconjugated Cys-Protein G) followed by Ni^2+-NTA resin (to remove any unconjugated oligos). Oligo-Protein G conjugates were then docked to 3x3v1 (27 docking sites) and 3x3v2 (9 docking sites) nets and assayed for activity on SPR binding assays.

[2] = KASUMI-1, MTT after 48 hours, daunorubicin or daunorubicin-loaded aptamer alone, read-out: IC50 (pM) Free
[3] = KASUMI-1, daunorubicin-loaded aptamer immobilized on 3x3v1 net, read-out: IC50 (pM) 3x3v1
[4] = KASUMI-1, daunorubicin-loaded aptamer immobilized on 3x3v1 net, read-out: IC90 (pM) 3x3v1
[5] = KASUMI-1, daunorubicin-loaded aptamer immobilized on TRD1, read-out: IC50 (pM) TRD1
[6] = KASUMI-1, daunorubicin-loaded aptamer immobilized on TRD1, read-out: IC90 (pM) TRD1

Molecule | ΔFold over Free (3x3v1) (KASUMI-1 cells) | IC50 (KASUMI-1 cells; [2]) | IC50 (KASUMI-1 cells; [3]) | IC90 (KASUMI-1 cells; [4]) | ΔFold over Free (TRD1) (KASUMI-1 cells) | IC50 (KASUMI-1 cells; [5]) | IC90 (KASUMI-1 cells; [6]) | other results
COc1cccc2c1C(=O)c1c(O)c3c(c(O)c1C2=O)C[C@@](O)(C(C)=O)C[C@@H]3O[C@H]1C[C@H](N)[C@H](O)[C@H](C)O1 [Daunorubicin, daunorubicin, reference compound] |  |  |  |  |  |  |  | killing of MM1S cells (MM1S cells): approximately 50%; killing of KASUMI-1 cells (KASUMI-1 cells; Example 3: 24 hours treatment, MTT after 48 hours, daunorubicin 40 μM, daunorubicin-loaded aptamers 4-0.02 μM): approximately 20%; IC50 (KASUMI-1 cells; Homo sapiens, Kasumi 1, 48 h, read-out: IC50 (pM) Free): 58400 pM
B1 |  |  |  |  |  |  |  | Kd (CD117 (c-KIT)): 1220 nM
B2 | 2.4x | 529 pM | 218 pM | 61800 pM |  |  |  | Kd (CD117): ~1220 nM and 1220 nM; fluorescence at the beginning of the daunorubicin release assay [1]: ≥ 400.0 RFUs
B3 | 8.0 x | 3540 pM | 445 pM | 128000 pM | 34.7 x | 102 pM | 7830 pM | 
B4 |  |  |  |  |  |  |  | relative response, binding to mouse IgG (mouse IgG): ~145 RUs
B5 |  |  |  |  |  |  |  | relative response, binding to mouse IgG (mouse IgG): ~170 RUs
B6 | 3.6x | 531 pM | 147 pM | 208000 pM | 5.6x | 95 pM | 165000 pM | IC90 (KASUMI-1 cells; KASUMI-1, daunorubicin-loaded aptamer alone, read-out: IC90 (pM) Free): 108000 pM
B7 | 4.2x | 976 pM | 233 pM | 17600 pM |  |  |  | 
B8 | 5.5 x | 5070 pM | 931 pM | 8700 pM | 38.1 x | 133 pM | 93600 pM | 
